Test results published in publication PMC7335169.

Molecular target: SAM complex (Sorting and Assembly Machinery complex) from Myceliophthora thermophila: Sam50, Sam35 and Sam37 (Myceliophthora thermophila)
Test: cryo-EM structure; SAM complex in detergent GDN (0.02%), 20 mM HEPES pH 8.0, 150 mM NaCl; monomer and three dimer conformations, 3.0-3.9 Å; the authors call the dimers non-physiological

- stoichiometry N: 2
Substance: SAM complex (Sorting and Assembly Machinery complex) from Myceliophthora thermophila: Sam50, Sam35 and Sam37
